# Laboratory results as given in doi:10.1101/2024.10.02.616342.
# Molecular target: mNG-BCR-ABL (biotinylated Avitag-linker-mNeon Green-linker-p210 BCR-ABL, full length) (human) (UniProt P00519)
# Assay: single-molecule TIRF pull-down
substance,measurement,value
"mNG-BCR-ABL (biotinylated Avitag-linker-mNeon Green-linker-p210 BCR-ABL, full length) (from UniProt P00519-1 28-1130)",percent dimeric,55%
same,percent monomeric,40%
same,percent tetramer,5%
same,stoichiometry N,2
